{"source": "paper PMC2952587", "about": "“Identification of the Essential Brucella melitensis Porin Omp2b as a Suppressor of Bax-Induced Cell Death in Yeast in a Genome-Wide Screening” (PLoS ONE, 2010)", "biological_target": "the molecule itself", "assay": "semi-denaturing gel with Western blot", "data": [{"protein": "Brucella melitensis porin Omp2b (natural protein, also called BMEI1305) ADAIVAPEPEAVEYVRVCDAYGAGYFYIPGTEICLRVHGYVRYDVKGGDDVYSGTDRNGWDKGARFALRVSTGSETELGTLKTFTELRFNYAANNSGVDGKYGNETSSGTVMEFAYIQLGGLRVGIDESEFHTFTGYLGDVINDDVISAGSYRTGKISYTFTGGNGFSAVIALEQGGDNDGGYTGTTNYHIDGYMPDVVGGLKYAGGWGSIAGVVAYDSVIEEWAAKVRGDVNITDQFSVWLQGAYSSAATPDQNYGQWGGDWAVWGGLKYQATQKAAFNLQAAHDDWGKTAVTANVAYELVPGFTVTPEVSYTKFGGEWKNTVAEDNAWGGIVRFQRSF", "values": [{"measurement": "stoichiometry N", "value": 3}]}]}
